Measurements taken from US20230046834A1 (BROWN UNIVERSITY, published 2023).
Blank lines part the entries; values can stand above or below the binder they belong to.

Experiments:
[1] = molecular target: T1, recombinant human (rh) CHI3L1 (human, UniProt P36222 22-383); experiment: competitive ELISA
T1 construct: Recombinant protein; also called human CHI3L1; chitinase 3-like-1

[2] = molecular target: T2, recombinant human (rh) CTLA4 (human, UniProt P16410 36-161, limits assumed); experiment: competitive ELISA
T2 construct: Recombinant protein; also called human CTLA4; CD152
T2 sequence (looked up): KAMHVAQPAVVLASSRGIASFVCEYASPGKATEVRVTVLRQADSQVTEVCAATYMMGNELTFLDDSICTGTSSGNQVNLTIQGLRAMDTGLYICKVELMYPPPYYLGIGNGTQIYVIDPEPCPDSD

T1 sequence (P36222 22-383 limits assumed): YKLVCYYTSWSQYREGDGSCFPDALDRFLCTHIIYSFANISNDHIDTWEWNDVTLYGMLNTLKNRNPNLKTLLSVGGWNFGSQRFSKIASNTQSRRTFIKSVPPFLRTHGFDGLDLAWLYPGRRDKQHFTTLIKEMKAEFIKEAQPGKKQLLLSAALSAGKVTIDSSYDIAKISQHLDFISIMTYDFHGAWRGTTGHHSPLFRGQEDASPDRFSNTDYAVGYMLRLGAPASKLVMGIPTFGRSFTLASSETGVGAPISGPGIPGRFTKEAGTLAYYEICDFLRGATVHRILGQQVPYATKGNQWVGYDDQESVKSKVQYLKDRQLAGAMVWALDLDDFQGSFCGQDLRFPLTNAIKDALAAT

- Kd [1]: ~1 nM
- limit of detection (LOD) [1]: 2 ng/mL
- Kd [2]: ~1 nM
- limit of detection (LOD) [2]: 2 ng/mL
B1: CHI3L1-HC-CTLA4 bispecific antibody (ScFv-CTLA4 attached to the heavy chain of the anti-human CHI3L1 antibody FRG) (bispecific antibody)
chain 1: QVQLQQSGAELMKPGASVKISCRTTGYTFSSYWIEWVKQRPGHGLEWIGEILPGSGSTNCNEKFKGKATFTADTSSNTAYMQLSSLTSEDSAVYYCVRSDDYYDYWGQGTTLTVSSVEGGSGGSGGSGGSGGVDQVQLVQSGAEVVQPGRSLRLSCAASGFTFSSYTMHWVRQAPGKGLEWVTFISYDGNNKYYADSVKGRFTISRDNSKNTLYLQMNSLRSEDTAVYYCARTGWLGPFDYWGQGTLVTVSSGGGGSGGGGSGGGGSGGGGSEIVLTQSPATLSLSPGERATLSCRASQSVGSSYLAWYQQKPGQAPRLLIYGAFSRATGIPARFSGSGSGTDFTLTISSLEPEDFAVYYCQQYGSSPWTFGQGTKVEIK
chain 2: DVLMTQTPLSLPVSLGDQASISCRSSQTIVHSNGNTYLEWYLQKPGQSPKLLIYKVSNRFSGVPDRFSGSGSGTDFTLKISRVEAEDLGVYYCFQGSHVPPTFGGGTKLEIK

- Kd [1]: ~1 nM
- limit of detection (LOD) [1]: 2 ng/mL
- Kd [2]: ~1 nM
- limit of detection (LOD) [2]: 2 ng/mL
B2: CHI3L1-LC-CTLA4 bispecific antibody (ScFv-CTLA4 attached to the light chain of the anti-human CHI3L1 antibody FRG) (bispecific antibody)
chain 1: QVQLQQSGAELMKPGASVKISCRTTGYTFSSYWIEWVKQRPGHGLEWIGEILPGSGSTNCNEKFKGKATFTADTSSNTAYMQLSSLTSEDSAVYYCVRSDDYYDYWGQGTTLTVSS
chain 2: DVLMTQTPLSLPVSLGDQASISCRSSQTIVHSNGNTYLEWYLQKPGQSPKLLIYKVSNRFSGVPDRFSGSGSGTDFTLKISRVEAEDLGVYYCFQGSHVPPTFGGGTKLEIKVEGGSGGSGGSGGSGGVDQVQLVQSGAEVVQPGRSLRLSCAASGFTFSSYTMHWVRQAPGKGLEWVTFISYDGNNKYYADSVKGRFTISRDNSKNTLYLQMNSLRSEDTAVYYCARTGWLGPFDYWGQGTLVTVSSGGGGSGGGGSGGGGSGGGGSEIVLTQSPATLSLSPGERATLSCRASQSVGSSYLAWYQQKPGQAPRLLIYGAFSRATGIPARFSGSGSGTDFTLTISSLEPEDFAVYYCQQYGSSPWTFGQGTKVEIK

- Kd [1]: ~1 nM
- limit of detection (LOD) [1]: 2 ng/mL
B3: anti-human CHI3L1 antibody (called "CHI3L1" or "FRG") (antibody, V domains shown)
VH: B2 chain 1
VL: B1 chain 2
